Experiment: yeast display, Sf9 membrane polyspecificity reagent, FACS + sequencing; frameworks hold sequencing errors
Summary of the method: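 A nanobody's polyreactivity label depends on the gate it was sorted from. Yeast display cells were stained with 10% biotinylated, detergent-solubilized Sf9 membrane reagent for 1 hour at 4 °C, enriched on streptavidin microbeads and sorted by FACS. The low and high (top ~1%) gates were set on anti-HA fluorescence for expression and streptavidin fluorescence for reagent binding.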

Row | Sequence | polyreactivity (PSR sort gate)
1 | QVQLVESGGGLVQAGGSLRLSCAASGITFAYNAMGWYRQAPGKERELVATISIGGNTNYADSVKGRFTISRDNAKNTVYLQMNSLKPEDTAVYYCNADFPHEGGFCYWGQGTQVTVSS | low polyreactivity
2 | QVQLVESGGGLVQAGGSLRLSCAASGIIFRNYAMGWYRQAPGKERELVAAISRNGGSTYYADSVKGRFTISRDNAKNTVYLQMNSLKPEDTAVYYCAARASYPNWTYYYWGKGTQVTVSS | high polyreactivity
3 | QVQLVESGGGLVQAGGSLRLSCAASGRTFPYNAMGWYRQAPGKERELVAAISGRGGSTYYADSVKGRFTISRDNAKNTVYLQMNSLKPEDTAVYYCAARLPWSYYRTQGYNYWGQGTQVTVSS | high polyreactivity
4 | QVQLVESGGGLVQAGGSLRLSCAASGIIFSWYAMGWYRQAPGKERELVATISGGGGSTYYADSVKGRFTISRDNAKNTVYLQMNSLKPEDTAVYYCAADYWNFNWRYKLYRPYDYWGQGTQVTVSS | high polyreactivity
5 | QVQLVESGGGLVQAGGSLRLSCAASGRTFRPYAMGWYRQAPGKERELVAAISSRGSSTYYADSVKGRFTISRDNAKNTVYLQMNSLKPEDTAFYYCAAEGSVGLYGLIMHYWGQGTQVTVSS | high polyreactivity
6 | QVQLVESGGGLGQAGGSLRLSCAASGRTFRLYAMGCYRQAPGKERELVASITSTGRTYYADSVKGRFTISRDNAKNTVYLQMNSLKPEDTAVYYCNAVALSNCEYDYWGQGTQVTVSS | high polyreactivity
7 | QVQIVESGGGLVQAGGSLRLSCAASGRISKFYTMGWYRQAPGKERELVADISYSGGSTYYADSVKGRFTISRDIEKNTVYLQMNSLKPEDTAVYFCSVDGLQRAIDYWGQGTQVTVSS | high polyreactivity
8 | QVQLVESGAGLVQAGGSLRLSCAASGSIFFSYAMGWSRQAPGKERELVAGINWSGGSTYADSVKGRFTISRDNAKNTVYLQMNSLKPEDTAVYYCAAKYYSERSRYHYWGQGTQVTVSS | low polyreactivity
9 | QVQLEDSGGGLVQAGGSLRLSCAASGRTFHRNAMGWYRQAPGKERELVAAITGSGGSTYYADSVKGRFTISRDNAKNTVYLQMNSLKPEDTAVYYCATYSYPERTGGQRTHYYWGQGTQVTVSS | high polyreactivity
10 | QVQHVESGGGLVQAGGSLRLSCAASGFTFYSYAMGWYRQSPGKERELVANITIGGSTYADSVKGRFTISRENAKNTVYLQMNSLKPEDTAVYYCAKQYGGRYGYWGQGTQVTVSS | low polyreactivity
11 | QVQLVESGGGLVQAGGSLRLSCAASGFTFRFYVMGWYRQAPGKERELVAAISSGGGSTYYADSVKGRFTISRDNAKNTVYLQMNSLKPEDTAVYYCNALKVSFLTITKYEYWGQGTQVTVSS | high polyreactivity
12 | QVQLVESGGGLVQAGGSLRLSCAASGRTFYGNVMGWYRQAPGKERELVAAISSRGSRTYYADSVKGRFTISRDNAKNTVYLQMNSLKPEETAVYYCNTYVRNHGLAGPDDYWGQGTLVTVSS | high polyreactivity
13 | QVQLVESGGGLVQAGGSLRLSCAASGRIFYPYAMGWYRQAPGKERELVAAISARGGSTYYADSVKGRFTISRDNAKNTVYLQMNSLKPEDTAVYYCATYTYRGVAEMDYWGQGTQVTVSS | high polyreactivity
14 | QVQLVESGGGLVQAGGSLRLSCAASGSIFTVYAMGWYRQAPGKERELVAAIRRTGSRTYYADSVKGRFTISRDNAKNTVYLQMNSLKPEDTAVYYCAADGWYDRRSVRLNYWGQGTQVTVSS | high polyreactivity
15 | QVQLVESGGGLVQAGGSLRLSCAASGFISGYYTMRWYRQAPGKARELVAVINSGGSTYYADSVKGRFTISRDNAKNTVYLQMNSLKPEDTAVYYCAKLGGKYSRYYYWGQGTQVTVSS | low polyreactivity
16 | QVQLVESVGGLVQAGGSLRLSCAASGYIFATNAMGWYRQAPGKERELVAAITRSGGRTYYADSVKGRFTISRDNAKNTVYLQMNSLKPEDTAVYYCAAARPTNIYYYWGQGTQVTVSS | high polyreactivity
17 | QVQLVESGGGLVQAGGSLRLSCAASGSIFDGYAMRWYRQAPGKERELVAAIRWGDGITYYADSVKGRFTISRDIAKNTVYLLMNSLKPVDTAVYYCAAVQHGHEPRVQDSYDYWGQGTQVTVSS | low polyreactivity
